From patent US20090075374A1, “METHODS OF GENERATING EPITHELIAL LINEAGE CELLS FROM EMBRYOID BODIES AND PLURIPOTENT CELLS” (priority 2007, published 2009)

Experiments:
Type in all cases: cell-based, human
[1] = test system: hESCs; experiment: Direct differentiation of hESCs to K14-positive cells; conditions: for K14+ yield: subsequent culture in keratinocyte medium, RA+/− cultures
Description: For immunohistochemistry, cells were fixed in 4% paraformaldehyde for 15 minutes at room temperature before blocking and permeabilizing with 5% milk in PBS with 0.4% Triton X-100.

[2] = test system: undifferentiated hESCs; experiment: Concentration-dependent effect of RA: toxicity; conditions: higher concentrations (e.g., 10 μM)
Description: In some experiments, K14-positive cells were generated from EBs.
To study the concentration-dependent effect of RA, EBs were differentiated with varying RA concentrations for nine days and subsequently cultured on gelatin in DSFM for nineteen days. […] To study the temporal-dependent effect of RA, RA was added to the cultures at various stages of differentiation (e.g., either during EB induction or during adherent culture in DSFM). […] When exposed to RA, plated cells from control EBs were enriched in neural precursor populations, as confirmed by qPCR analysis.

[3] = test system: hESCs; experiment: Direct differentiation of hESCs in N2 medium containing RA, BMP-4 or Noggin: epithelial and neuroectodermal transcripts; conditions: six days, BMP-4 inhibition in RA-treated samples
Description: For semi-quantitative and quantitative PCR, RNA was harvested from cells using a RNeasy® Mini kit (Qiagen; Valencia, Calif.). cDNA was then generated using Omniscript® RT (Qiagen), 1 μg RNA and oligo-dT primers. For semi-quantitative analysis, PCR was conducted using Platinum® Taq (Invitrogen) with 1 μl cDNA for 30 or 35 cycles. For quantitative analysis, PCR was conducted using Quantitect® SYBR Green qPCR kit (Qiagen) with 1 μl cDNA on an iCycler (BioRad; Hercules, Calif.). Relative expression levels were calculated using the ΔCT method, normalizing to GAPDH transcription. Primers (Table 1) were designed to span intron or bound exon borders, and PCR products were verified by melt curve analysis and/or 2% agarose gel electrophoresis.
BMP-4 synergized with RA in direct differentiation of hESCs to K14^+ cells. hESCs were directly differentiated in N2 medium containing RA, BMP-4 or Noggin (a BMP inhibitor). After differentiation for six days, RNA was analyzed for expression of epithelial and neuroectodermal transcripts. ΔNp63 was elevated in all RA-treated cell samples, regardless of status of BMP signaling.

CC1=C(/C=C/C(C)=C/C=C/C(C)=C/C(=O)O)C(C)(C)CCC1 [RA, tretinoin (all-trans RA), reference compound]
cells expressing K14 ([1]; after five weeks of differentiation, subculture in keratinocyte medium): 87% | toxicity to undifferentiated hESCs [2]: appeared toxic

B1: Noggin: a BMP inhibitor (R&D Systems) (protein, UniProt Q13253 28-232, looked up)
Noggin: QHYLHIRPAPSDNLPLVDLIEHPDPIFDPKEKDLNETLLRSLLGGHYDPGFMATSPPEDRPGGGGGAAGGAEDLAELDQLLRQRPSGAMPSEIKGLEFSEGLAQGKKQRLSKKLRRKLQMWLWSQTFCPVLYAWNDLGSRFWPRYVKVGSCFSKRSCSVPEGMVCKPSKSVHLTVLRWRCQRRGGQRCGWIPIQYPIISECKCSC
K14+ yield [1]: decreased | effect on RA downregulation of neuroepithelial gene expression [3]: mitigated this effect

B2: BMP-4: bone morphogenetic protein-4 (R&D Systems), growth factor of the TGF-β superfamily (protein, UniProt P12644 293-408, looked up)
Bone morphogenetic protein 4: SPKHHSQRARKKNKNCRRHSLYVDFSDVGWNDWIVAPPGYQAFYCHGDCPFPLADHLNSTNHAIVQTLVNSVNSSIPKACCVPTELSAISMLYLDEYDKVVLKNYQEMVVEGCGCR
K14+ yield [1]: only slightly affected
